# Experimental data: the DeepSol protein solubility set
# Test: soluble on expression in E. coli; label from the status in PepcDB or PDB records
row,Sequence,soluble on expression in E. coli
1,MTTSNIKALIPSELRKVWEFILDIENYDAWRSDLSKTEVVSDKQFIEYTKDGYPTTFTVTLVEPYRRWEFDMQNSNMSGHWIGVFTDKGNETEIDFTECVEAKKMLMKPFVKSYLKKQQAQFVADIMKNFSLEHHHHHH,soluble
2,MDNAHTPPFAGLTPDAILDAVESLGLRASGSLLALNSYENRVYQVGLDDAAPLVAKFYRPARWSDAAILEEHAFSLQLAEREIPAVPPLAFGGRTLHGHGGFRFALFERRGGRVPELDRDETLQWVGRFLGRIHALGRTEGYRHRPTLDMQSFGREPVDFVLGGGWLPPELEAVYRGVAEQALQGVARCFERAGPVAQLRLHGDCHVGNLLWTDAGPHFVDFDDSRMGPAVQDLWMLLSGERAEQSRQLGEVLAGYEDFCEFDLRELNLLEALRTLRLLHYSAWLARRWHDPAFPAAFPWFGAPRYWEEQILALREQIALMDEPPLWSCLEHHHHHH,not soluble
3,DVQITQSPSYLAASPGETITLNCRASKSISKYLAWYQEKPGKTNKLLIYSGSTLQSGIPSRFSGSGSGTDFTLTISSLEPEDFAMYFCQQHNEYPYTFGGGTKLEIKRTVAAPSVFIFPPSDEQLKSGTASVVCLLNNFYPREAKVQWKVDNALQSGNSQESVTEQDSKDSTYSLSSTLTLSKADYEKHKVYACEVTHQGLSSPVTKSFNRGEC,soluble
4,MTFRYRGPSPKGDQPKAIAGLVEALRDGERFVTLLGATGTGKTVTMAKVIEALGRPALVLAPNKILAAQLAAEFRELFPENAVEYFISYYDYYQPEAYVPGKDLYIEKDASINPEIERLRHSTTRSLLTRRDVIVVASVSAIYGLGDPREYRARNLVVERGKPYPREVLLERLLELGYQRNDIDLSPGRFRAKGEVLEIFPAYETEPIRVELFGDEVERISQVHPVTGERLRELPGFVLFPATHYLSPEGLEEILKEIEKELWERVRYFEERGEVLYAQRLKERTLYDLEMLRVMGTCPGVENYARYFTGKAPGEPPYTLLDYFPEDFLVFLDESHVTVPQLQGMYRGDYARKKTLVDYGFRLPSALDNRPLRFEEFLERVSQVVFVSATPGPFELAHSGRVVEQIIRPTGLLDPLVRVKPTENQILDLMEGIRERAARGERTLVTVLTVRMAEELTSFLVEHGIRARYLHHELDAFERQALIRDLRLGHYDCLVGINLLREGLDIPEVSLVAILDADKEGFLRSERSLIQTIGRAARNARGEVWLYADRVSEAMQRAIEETNRRRALQEAYNLEHGITPETVRKEVRAVIRPEGYEEAPLEADLSGEDLRERIAELELAMWQAAEALDFERAARLRDEIRALEARLQGVRAPEPVPGGRKRKRR,soluble
5,MPHPKLTPKCEAPPEKRLAHLEIRFKDRRHIIPPLFHNGWVGRNEDRTLLNDTIIEFYMCDWMRLEVFDEATRASSHVFHSFFLPKIKTCFKDFKENPPRRSELANHYNRFFRSKNDAETFLKKDILLIPVHLDKPKHWFLVIVHNPSGAVRRISDVNILDATNKVKSRRLSRRITGHVNCDENAGECRIIIMDSLVHSKKYREVIDKTHDSTFDHIRLWLLMSAAATDVDMFCTRFRKVVCQKLPQQKNSVDCGIFMMAFAEYFTKYNTAWQSLPTDALADLKMDDDIKSLLNSETPRQRLDELFQSLKA,not soluble
6,MSLRLKILIKLSGAGMSADSSEPFSNQFLETVIAQLKQLVPNYQIGIVIGGGNIMRGKSCSDYNITEIAGHHLGIMATVINGAFLKAKFDSHKLNSTLLSAVSCPSLATHIVSQATIDDAFKNHDIVIFAGGTGNPYFSTDTAVALRATQMQADIILIGKNGVDGVYTADPKKDKHAKFLASLTYAEAIKNDLQIMDITAFTMCKENNLKVIIFNINAEHAIIKALSKQGKYTLIEKEGHHHHHH,soluble
7,SNAMSLEMFDKEIFDLTNKELERQCEGLEMIASENFTLPEVMEVMGSILTNKYAEGYPGKRYYGGCEFVDEIETLAIERCKKLFNCKFANVQPNSGSQANQGVYAALINPGDKILGMDLSHGGHLTHGAKVSSSGKMYESCFYGVELDGRIDYEKVREIAKKEKPKLIVCGASAYARVIDFAKFREIADEIGAYLFADIAHIAGLVVAGEHPSPFPYAHVVSSTTHKTLRGPRGGIIMTNDEELAKKINSAIFPGIQGGPLMHVIAAKAVGFKFNLSDEWKVYAKQVRTNAQVLANVLMDRKFKLVSDGTDNHLVLMSFLDREFSGKDADLALGNAGITANKNTVPGEIRSPFITSGLRLGTPALTARGFKEKEMEIVSNYIADILDDVNNEKLQENIKQELKKLASNFIIYERAMF,soluble
8,MGSDKIHHHHHHMLEGEFLSVAELKDLTLSLASKFLNNLLASKLLVSKQLFIDRKKELGLLEERLKSGKAQFIVIYGRRRVGKTALILEFLRRHGGLYLLARETSEIENLERFSLRLAEYFNDSFLKKNPLRSLDAFFEYLSTKAEKPFIIAIDEFPYLVKGNKALPSILQEYWEMKLSKKKIFLIVSGSSVSMTERLLGYKSPLYGRRTAQLKLKPLDFFNAREFLPKYSLEDFVRVYGILGGTPAYLLEFSDEKSLEENLKSYFRVDSLLYGDALFILREELDEPRNYFAIMEAIARGNTTLGEIVNETGLERATVGKYLSVLIDLDLVRREVPITASRKSRKGRYYIADNYFAFWFRYVYPNADLIESGNGELLVDTVMDDIDHYTGEVFEGVAKEFLLRLNKSERLPFRFSRVGRWWYKNEEIDLVALNEREKKVLFIEVKWKDLSKREARGILKDLKRKAKLVGLDEWGKHYGLVAKSVRGKDEIKEEGWLAWDLEDIHRMAF,not soluble
9,EIGYYEWAIENDEMHCNSLYKKIFGFSDAHDPTYKEFTSQIFPKDLSVRNNAVQRAILVGGVYNAEYRVRHPNDELRWVKSFGKAIYDEKGKPVKLIGMILD,not soluble
10,MMQIRPVSDLRNKFSEIENIIISNKSPVFLTKNGHGSMVLMSLDMYESLTDNVENRLDEADFQAASTNVRLSHKDVFSDIRSKI,not soluble
11,MGSDKIHHHHHHMHIPPFDNQNQAIVGEGDAHVPLTYFNIVKLKEGEAYDYRLKGYETCIVPATGTVDVEVGGEVFADIGNRCVDVWDGDPEGVYVPTNVGAHITARTDAEIFVAGAQFTETLTPFAVRAGELDLVQYGSDETKTHRKIKHILGAGHHDRVGRLLVSELFTVGAGGWSGFPSHKHDTDRLPDETRHDECYNFRFKPDYGSGLQMLQREDNEPGDAYHIMNGSTVLIDKGYHPCCALPGYEMYYFTILGGLSQRSLKQYFQPTHSEQLHTIPGIMDMVAKFK,not soluble
12,MSGREFLQKLLDGERVEWKALGEIIQLEKGRQLNKDLLSSSGRYPAYNGGMSYSGFTDSYNYSENKTIISQGGASAGFVNFVTTKFYANAHCYVVLPDTEVVDNRYIYHFLKLNEERLTSCQHGAGIPALRASEITSLKIPIPCPDNPKKSLAIQAEIVRILDAFTELTAELTAELTARKKQYAYYRDRLLTFTTPPYGHPSKGGELFSLFGHPSEGGELFTPYGHSVEERELNSPSLKGWQAQPDGVVPVEWKTLGEVGHFIRGSGIQKSDFKASGVGCIHYGQIHTHYGTWTTETKSFIDPEFANRLKKAKPGDLVIATTSEDDDAVAKAVAWIGTEDVAVSTDAYIFRHTANPKYMSYFFQTDMFQEQKKPYITGTKVRRISGDNLAKILIPIPPLAEQERIVAILDQFDALTNSLTEGLPREIELRQKQYAYYRDLLFSFPKASFGGVPEGRDQFPSFGGVPEGRGGLNALEHHHHHH,not soluble
13,SLVKSTSCTTIDFMNMSQLTERTFTSSESLSSLSLFLSLARGQCRPGKFWHRRSFRQKFLLRSLIMPRLSVEWMNELSHWPNLNVLLTRQPRLPVRLHRPYLAANLSRKQLLEALRYHYALLRGCMSAEEFSLYLNTPGLQLAKLEGKNGEQFTLELTMMISMDKEGDSTILFRNSEGIPLAEITFTLCEYQGKRTMFIGGLQGAKWEIPHQEIQNATKACHGLFPKRLVMEAACLFAQRLQVEQIIAVSNETHIYRSLRYRDKEGKIHADYNAFWESVGGVCDAERHYRLPAQIARKEIAEIASKKRAEYRRRYEMLDAIQPQMATMFRG,not soluble
14,MSLAVLAPRVASVGVHSIDHFALEVPDLSAAKVFFGAFGLAVDETIDGLELRASASDHVWARVLKGSRKQLAYLSLNCFGDDLAALTAQVETAGGKPCAAHAGAHDPEGFWFEDPDGNRLQIRTGDKTSPGLKKAAVAAKVRRGLRGAAARHEAPAVHPTRLSHVLLFTPDIERAIQFYRDALGLKFSDGSKGIVAFMHGRHGSDHHLVAFVQSSAKGWHHSAWDVPTVEEVGLGKMQMARAGFVDGWGVGRHVLGSNHFHYVRDPWGSFCEYSADIDFVPPGVEWPSADHPPEDSLYLWGPDVPAYFIENTEAQREGHHHHHH,soluble
15,MGSDKIHHHHHHMKIGIDGRAAKWYRGTGIGTYTYQLISHINKLDEANDYTIFLPDSSNLNFKLKNNFSLKSINCTAKNNFWDQVNIPNIIKKDDTELYHVPQNGIGLPYNKNCRFTITLHDIIPYKMPETVGKKYLKIFEEEIPKIIPLCDGIITVSDFSKKDISEFFNYPESKIYVTYLSAEDIYRPIEKCISKDIIKNLYGIDKNYILYVGGFSPRKNISGIIHAFSKLKKTTKTNLKLIIAGKKGLSYPNYVDIAKKLNVSSDVIFPGFIPLEYMPFLYNAAEFLIYPSFYEGFGLPPLEAMACKVPVITSNITSLYEIFNGCALIVNPYDVEKIKDAMEIMYFDSSVRKIYSEKGFEFSKKLTWNSTAISTIKAYEKISKN,not soluble
16,MGSDKIHHHHHHMPGASPWRALVGGVKGQPQGTGMDRIGPAERPILSEGAKRVTADLLQTINTIYDCVGDELDHHRCLAAIGEAVDGTSLSVGEVFPFFGRIRLIANYCVPEDAARIMVDSFSTIESNSFMKNLPRFPEGVPFMRRTFVSDEEHYQSDIYKLASEPWGLHSEGATIFSKSIVSAKFCGFFRLPGKAELDIHDLSKLAILNGHYMKAMKFQDRISGLETALLRANNVLDLLDFGLLLFGDQKSPLYVNQAAHRILEKSDVMSLGRDGLIFSSSKSQNHYEKIFSSVVGSRSSPTKGTGGLVQVSPASFRRPYNVVVQPISSHQTGVADATIGVLIFDPNAKRTTAIELFSTSYGLTKKETQLALHLAEGLSVDEYAKSHNVSINTVRTHVRSIYEKTNTTRQPELVSLILRLTAGLNWT,not soluble
17,MGSDKIHHHHHHMAKAKTQYVCQNCGYISATYLGRCPNCGGWNTLVEETVSSSKSVPRQTAAGSKVKPTRMNDVTITKETRVKTGLDELNRVLGGGVVPGSLVLIGGDPGIGKSTLLLQVSGQLANTGGTVLYVSGEESASQIKMRAGRLGVANSGMYLYPETDMPSIEDVINQMQPDYVVIDSVQTMNVPEMNSAVGSVTQIREVTAELMRIAKSKGVTIFIVGHVTKEGAIAGPKILEHMVDTVLYFEGDMHHTYRILRSVKNRFGSTNEIGIFEMHQDGLQEVANPSEIFLEERLAGATGSAVVVSMEGTRPILVEIQALISPTMYGNAKRTSSGLDHNRVSLIMAVLEKRANLMLQNQDAYLKATGGVKLDEPAIDLAMAVAIASSYRDKEISPTDCFVGEIGLTGEVRRVNRIEERVKEAAKLGFKRIFVPRNNLQGWHAPKDIQVIGVTSIAEALHKVFN,not soluble
18,MGHHHHHHSHMTIYDQHMHTLYSFDSEAQLRDYLTQTKAPVVTTEHLEFDNPDDGGRDNLPDYARMKATQAALAEKFPNEFLLGIEAGYFAPADARFRQYLDNHDFDLTLLSFHHDGHYDYLDEQLITMPAKQQLEDYFERMLAGLKRFHDADVLAHFDYALRRFDITPDQLEAWGKPLLDQIFTIAVENDLALELNTKSMYRWGNAPLYDQAIAWYQAAGGHLFTIGSDAHEGPQYEANFADALAMLKRHGVKEIATYRQHQRTMVPIEPPVIDADNAY,soluble
